US20250270319A1 (Alector, published 2025)
Numbering of substitutions follows the chain as printed.

B1: anti-CD33 antibody 6C7H12 (antibody, V domains shown)
VH: EVQLVESGGGLVQPGGSLRLSCAGSGFTFSNYGMNWVRQAPGKGLEWVAEIRLKSNNYVTNYAASVKGRFTISRDDSKNSVYLQMNSLKTEDTGVYYCTRAGYYVPFAYWGQGTLVTVSS
VL: QLVLTQSPSASASLGASVKLTCTLSSQHSTYTIEWYQQQPEKGPRYLMELKKEGSHSTGDGIPDRFSGSSSGAERYLTISSLQSEDEADYYCGVGDTIKEQFVYVFGGGTKLTVL
notes: VH/VL only
B2: anti-CD33 antibody 6C7H14 (antibody, V domains shown)
VH: B1 VH with G33A
VL: B1 VL
notes: VH/VL only
B3: anti-CD33 antibody 6C7H24 (antibody, V domains shown)
VH: B1 VH with G33N
VL: B1 VL
notes: VH/VL only
B4: anti-CD33 antibody 6C7H23 (antibody, V domains shown)
VH: B1 VH with G33V
VL: B1 VL
notes: VH/VL only
B5: anti-CD33 antibody 6C7H21 (antibody, V domains shown)
VH: B1 VH with G33Q
VL: B1 VL
notes: VH/VL only
B6: anti-CD33 antibody 6C7H29 (antibody, V domains shown)
VH: B1 VH with N31A, G33S
VL: B1 VL
notes: VH/VL only
B7: anti-CD33 antibody 6C7H20 (antibody, V domains shown)
VH: B1 VH with G33P
VL: B1 VL
notes: VH/VL only
B8: anti-CD33 antibody 6C7H28 (antibody, V domains shown)
VH: B1 VH with N31D, G33S
VL: B1 VL
notes: VH/VL only
B9: anti-CD33 antibody 6C7H25 (antibody, V domains shown)
VH: B1 VH with G33E
VL: B1 VL
notes: VH/VL only
B10: anti-CD33 antibody 6C7H18 (antibody, V domains shown)
VH: B1 VH with G33H
VL: B1 VL
notes: VH/VL only
B11: anti-CD33 antibody 6C7H16 (antibody, V domains shown)
VH: B1 VH with G33L
VL: B1 VL
notes: VH/VL only
B12: anti-CD33 antibody 6C7H26 (antibody, V domains shown)
VH: B1 VH with G33I
VL: B1 VL
notes: VH/VL only
B13: anti-CD33 antibody 6C7H17 (antibody, V domains shown)
VH: B1 VH with G33Y
VL: B1 VL
notes: VH/VL only
B14: anti-CD33 antibody 6C7H15 (antibody, V domains shown)
VH: B1 VH with G33S
VL: B1 VL
notes: VH/VL only
B15: anti-CD33 antibody 6C7H40 (antibody, V domains shown)
VH: B1 VH with G24A, N31E, G33D, N35L, A49G, S77T
VL: B1 VL with V3M, E41G, D96H, V105E
notes: VH/VL only
B16: anti-CD33 antibody 6C7H36 (antibody, V domains shown)
VH: B1 VH with G24A, N31E, G33A, N35L, A49G, A108T
VL: B1 VL with V3M, E41G, D96H, V105E
notes: VH/VL only
B17: anti-CD33 antibody 6C7H41 (antibody, V domains shown)
VH: B1 VH with G24A, N31E, G33D, N35L, A49G, S77T
VL: B1 VL with V3M, E41G, D96H
notes: VH/VL only
B18: anti-CD33 antibody 6C7H33 (antibody, V domains shown)
VH: B1 VH with G24A, F27S, N31E, G33D, N35L, A49G
VL: B1 VL with V3M, E41G, D96H
notes: VH/VL only
B19: anti-CD33 antibody 6C7H35 (antibody, V domains shown)
VH: B1 VH with G24A, N31E, G33A, N35L, A49G, A108T
VL: B1 VL with L2P, D96V
notes: VH/VL only
B20: anti-CD33 antibody 6C7H39 (antibody, V domains shown)
VH: B1 VH with G24A, N31E, G33D, N35L, A49G, S77T
VL: B1 VL with L2P, D96V
notes: VH/VL only
B21: anti-CD33 antibody 6C7H31 (antibody, V domains shown)
VH: B1 VH with G24A, F27S, N31E, G33D, N35L, A49G
VL: B1 VL with L2P, D96V
notes: VH/VL only
B22: anti-CD33 antibody 6C7H32 (antibody, V domains shown)
VH: B1 VH with G24A, F27S, N31E, G33D, N35L, A49G
VL: B1 VL with V3M, E41G, D96H, V105E
notes: VH/VL only
B23: anti-CD33 antibody 6C7H49 (antibody, V domains shown)
VH: B1 VH with G24A, N31E, G33D, N35L, A49G
VL: B1 VL with L2P, D96V
notes: VH/VL only
B24: anti-CD33 antibody 6C7H34 (antibody, V domains shown)
VH: B1 VH with G24A, F27S, N31E, G33D, N35L, A49G
VL: B1 VL with L2P, V3M, E41G, D96L
notes: VH/VL only
B25: anti-CD33 6C7 chimeric antibody (antibody, V domains shown)
VH: EVKLEESGGGLVQPGGSMKLSCVGSGFTFSNYCMNWVRQSPEKGLEWVAEIRLKSNNYVTNYVESVKGRFTISRDDSKSRVYLQMNNLRGEDTGFYYCTRDGYYVPFAYWGQGTLVTVSA
VL: QLVLTQSSSASFSLGASAKLTCTLSSQHSTYTIEWYQQQPLKPPKYVMELKKDGSHSTGDGIPDRFSGSSSGADRYLSISNIQPEDEAIYICGVGDTIKEQFVYVFGGGTKVTVL
notes: detected with anti-human IgG; also called 6C7 Chimeric Ab

molecular target: T1, human CD33 on primary human dendritic cells (human, UniProt P20138 18-364); test: cell-based or functional assay
T1 sequence (P20138 18-364): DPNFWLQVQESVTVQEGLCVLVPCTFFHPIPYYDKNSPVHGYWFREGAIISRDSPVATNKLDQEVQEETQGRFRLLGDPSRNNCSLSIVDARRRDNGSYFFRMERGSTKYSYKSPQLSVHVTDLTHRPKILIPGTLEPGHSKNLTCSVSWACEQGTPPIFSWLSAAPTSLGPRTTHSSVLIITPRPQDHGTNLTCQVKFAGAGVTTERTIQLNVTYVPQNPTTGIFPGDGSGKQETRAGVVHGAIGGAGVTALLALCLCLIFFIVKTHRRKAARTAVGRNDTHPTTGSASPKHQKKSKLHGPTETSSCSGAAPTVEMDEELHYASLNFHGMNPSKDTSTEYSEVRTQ

| Fold increase in potency compared to 6C7H5 [fold] | Maximal reduction in CD33 (% remaining) | Receptor downregulation, (EC50) (pM) | Binder |
| --- | --- | --- | --- |
| 0.3 | 27.5 | 160 | B1 |
| 0.3 | 28.4 | 164 | B2 |
| 0.1 | 22.5 | 319 | B3 |
| 0.4 | 26.2 | 120 | B4 |
| 1.2 | 28.3 | 34.7 | B5 |
| 0.3 | 27.3 | 134 | B6 |
| 1 | 29 | 40.8 | B7 |
| 0.3 | 27.6 | 147 | B8 |
| 1.6 | 30.3 | 27.6 | B9 |
| 0.3 | 29.2 | 148 | B10 |
| 0.1 | 28 | 305 | B11 |
| 0.2 | 28.3 | 175 | B12 |
| 0.8 | 32.1 | 51.9 | B13 |
| 0.2 | 27.7 | 252 | B14 |

molecular target: T1, human CD33 on primary human dendritic …; test: cell-based or functional assay; remark: another data set of the same source

| Fold increase in potency compared to 6C7H5 [fold] | Receptor downregulation, (EC50) (pM) | Binder |
| --- | --- | --- |
| 1.1 | 37.2 | B15 |
| 0.9 | 49.1 | B16 |
| 1.2 | 34.2 | B17 |
| 0.8 | 50 | B18 |
| 0.8 | 51 | B19 |
| 1.1 | 38.7 | B20 |
| 0.6 | 67.7 | B21 |
| 0.9 | 47.2 | B22 |
| 0.6 | 69.7 | B23 |
| 0.7 | 60.3 | B24 |

molecular target: T2, recombinant human CD33 protein (Sino Biologicals) (human, UniProt P20138 18-259); test: ELISA, plate coated with recombinant CD33
T2 construct: Bought protein; also called recombinant CD33
T2 sequence (P20138 18-259 limits assumed): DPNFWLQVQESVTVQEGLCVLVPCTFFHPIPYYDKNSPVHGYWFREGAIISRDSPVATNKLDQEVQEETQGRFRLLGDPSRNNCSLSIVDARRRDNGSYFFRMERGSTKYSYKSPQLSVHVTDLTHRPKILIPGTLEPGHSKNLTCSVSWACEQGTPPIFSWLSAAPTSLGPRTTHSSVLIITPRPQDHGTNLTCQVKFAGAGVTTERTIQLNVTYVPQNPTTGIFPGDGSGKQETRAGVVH

| EC50 [nM] | Binder |
| --- | --- |
| 0.19 | B15 |
| 0.13 | B16 |
| 0.23 | B17 |
| 0.17 | B18 |
| 0.16 | B5 |
| 0.21 | B19 |
| 0.23 | B20 |
| 0.21 | B21 |
| 0.2 | B22 |
| 0.3 | B23 |
| 0.17 | B24 |

molecular target: T3, recombinant cynomolgus CD33 protein (NovoProtein) (cynomolgus); test: ELISA, plate coated with recombinant CD33
T3 construct: Bought protein; also called cyno CD33
T3 sequence (chain, as listed by the source limits assumed): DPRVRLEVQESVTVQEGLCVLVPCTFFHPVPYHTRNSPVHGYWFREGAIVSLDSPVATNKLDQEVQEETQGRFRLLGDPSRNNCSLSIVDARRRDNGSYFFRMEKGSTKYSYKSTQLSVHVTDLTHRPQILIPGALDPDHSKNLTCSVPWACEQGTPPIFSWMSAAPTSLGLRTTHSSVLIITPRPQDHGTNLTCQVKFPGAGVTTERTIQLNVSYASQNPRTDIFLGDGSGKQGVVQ

| EC50 [nM] | Relative maximal binding (cyno/human) | Relative potency (human/cyno) | Binder |
| --- | --- | --- | --- |
| 4 | 0.34 | 0.03 | B16 |
| 2.96 | 0.47 | 0.06 | B25 |

molecular target: T2, recombinant human CD33 protein (Sino …); test: BLI (ForteBio), antibody on anti-human Fc sensor, CD33 10 nM
Protocol: Affinity parameters of the antibody variants for human CD33 were measured by BioLayer Interferometry in a ForteBio assay according to standard techniques (Estep et al. (2013) MAbs 5(2): 270-8) and were compared to those of the parental antibody (antibody 6C7H8) and the parental humanized antibody (antibody 6C71H5). Briefly, the antibodies were captured on anti-human Fc Biosensors (Pall ForteBio). Recombinant human CD33 (10 nM, Sino Biologicals) was then bound to the captured anti-CD33 surface (200 s association time, 1200 s dissociation time). Local fitting was used to extract association and dissociation rate constants (kₐ and kd, respectively) for each antibody. Apparent affinity constants (KD) were calculated from the ratio kd/kₐ.

| Kd [nM] | koff [s⁻¹] | kon [M⁻¹ s⁻¹] | Binder |
| --- | --- | --- | --- |
| 0.926 | 0.000694 | 749000 | B1 |
| 0.805 | 0.000798 | 991000 | B2 |
| 0.552 | 0.000757 | 1.37e+06 | B3 |
| 0.558 | 0.000691 | 1.24e+06 | B4 |
| 0.528 | 0.000263 | 498000 | B5 |
| 0.991 | 0.000868 | 875000 | B6 |
| 0.619 | 0.000457 | 739000 | B7 |
| 0.76 | 0.000859 | 1.13e+06 | B8 |
| 0.246 | 0.00013 | 529000 | B9 |
| 0.609 | 0.00064 | 1.05e+06 | B10 |
| 0.782 | 0.00102 | 1.3e+06 | B11 |
| 0.718 | 0.000944 | 1.32e+06 | B12 |
| 0.853 | 0.000523 | 613000 | B13 |
| 1.03 | 0.000825 | 801000 | B14 |
